Measurements from PMC11734750, “Using environment-sensitive tetramethylated thiophene-BODIPY fluorophores in DNA probes for studying effector-induced conformational changes of protein–DNA complexes” (RSC Chemical Biology, 2025).

Assays:
[1] = target: T1, LutR (LutR-FL, full-length); test: microscale thermophoresis (label-free); type: binding, Bacillus subtilis; settings: 8 μM LutR; 20 mM Tris-HCl pH 7.5, 250 mM NaCl, 0.02% β-mercaptoethanol; free protein without DNA; effector
T1 construct: full-length residues 2-240, N-terminal His6 and TEV site (pMCSG7-derived vector), His6-tagged protein purified and apparently tag kept; expressed in E. coli BL21(DE3)

[2] = target: DNA-binding domain of LutR (LutR–DBD, residues 2–78) (Bacillus subtilis); test: SEC; analytical SEC, Superdex 200 10/300 GL, room temperature, PBS pH 7.4; protein 3 mg/ml (33.2 uM as printed); alone and with DNA (protein:DNA 2:1)
[3] = target: Full-length LutR (LutR-FL, amino-acid residues 2–240) (Bacillus subtilis); test: SEC; analytical SEC, Superdex 200 10/300 GL, room temperature, 20 mM Tris-HCl pH 7.5, 250 mM NaCl, 0.02% beta-mercaptoethanol; protein 2 mg/ml (66.7 uM), DNA 50 uM, protein:DNA 2:1.5; with and without 50 mM L-lactate; dimer told for the DNA-bound protein

Question: With `C[C@H](O)C(=O)O` [L-lactate] as the compound, how does the Kd [1] read?
Answer: 2.3 ± 0.005 mM

Question: With “DNA-binding domain of LutR (LutR–DBD, residues 2–78) (domain or fragment)” as the compound, how does the stoichiometry N [2] read?
Answer: 2

Question: “Full-length LutR (LutR-FL, amino-acid residues 2–240) (natural protein)” was tested. Which stoichiometry N [3] did it give?
Answer: 2
